Measured values reported in the Human Domainome abundance scans (Beltran et al. 2025).

B1: Dystrobrevin alpha, residues 235 to 294; numbered along this chain, Q9Y4J8 (parent)
chain: ENVFHPVECSYCHSESMMGFRYRCQQCHNYQLCQDCFWRGHAGGSHSNQHQMKEYTSWKS

Variants of: B1
Assay: abundance fitness (aPCA) (normalised: wild type 0, dead -1); higher = more abundant; growth selection in yeast, the domain comes from the species named
Details: Homo sapiens

Abundance fitness, by site and new letter:
G40: Q -0.281, R -0.206, S -0.229, T -0.366, V -0.266, W -0.352
H41: A 0.013, C 0.013, D -0.296, E -0.09, F -0.044, G -0.312, I -0.284, K 0.089, L -0.038, M -0.014, N 0.063, P -0.192, Q 0.146, R 0.067, S 0.037, V 0.122, W -0.323, Y -0.127
A42: D -0.253, E 0.081, G -0.026, H 0.05, I -0.372, K -0.224, L -0.285, M -0.04, N -0.077, P -0.421, Q -0.071, R -0.032, T -0.054, V 0.005, W -0.29, Y -0.381
G43: A -0.325, C -0.034, D 0.325, E 0.087, F -0.542, H -0.09, I -0.685, L -0.221, M -0.068, N 0.121, P -0.765, S 0.09, T -0.139, V -0.352, W -0.208
G44: C -0.362, D 0.077, E -0.303, F -1.15, H -0.818, I -0.719, K -0.177, L -0.621, M -0.384, N -0.285, P -0.523, Q -0.841, S -0.209, T -0.26, V -0.234, W -0.616, Y -0.411
S45: C 0.06, D 0.163, E 0.065, G 0.099, H -0.291, I -0.394, K 0.031, L -0.163, M -0.269, N -0.13, P -0.043, Q -0.121, R -0.159, T 0.098, W -0.287, Y -0.605
H46: A -0.186, C -0.366, D -0.2, E -0.198, F -0.514, G -0.165, I -0.366, K -0.117, L -0.419, M -0.17, N -0.316, P -0.27, Q -0.331, R -0.189, T -0.219, V -0.227, W -0.427, Y -0.538
S47: A -0.349, C -0.103, D 0.044, E -0.028, F -0.455, G -0.22, H -0.091, I -0.25, K 0.038, L -0.333, M -0.322, N 0.029, P -0.172, Q -0.031, R -0.118, V -0.199, W -0.051, Y -0.57
N48: A 0.007, C -0.063, E -0.167, F -0.274, G -0.045, H -0.174, I -0.177, K -0.248, L -0.22, M -0.149, P 0.108, Q -0.084, R -0.182, T -0.042, V 0.037, W -0.532, Y -0.318
Q49: A 0.073, C -0.083, D 0.128, F -0.138, G 0.103, H -0.141, I -0.205, K -0.14, L -0.003, N 0.019, P -0.249, R 0.017, S 0.029, T 0.072, V -0.034, Y -0.256
H50: A -0.543, C -0.301, D -0.411, E -0.516, F -0.755, G -0.493, I -0.524, K -0.438, L -0.622, M -0.503
